# T1: Rev-erb alpha (NR1D1) (Homo sapiens, UniProt P20393 P20393:1-614)
# T1 sequence: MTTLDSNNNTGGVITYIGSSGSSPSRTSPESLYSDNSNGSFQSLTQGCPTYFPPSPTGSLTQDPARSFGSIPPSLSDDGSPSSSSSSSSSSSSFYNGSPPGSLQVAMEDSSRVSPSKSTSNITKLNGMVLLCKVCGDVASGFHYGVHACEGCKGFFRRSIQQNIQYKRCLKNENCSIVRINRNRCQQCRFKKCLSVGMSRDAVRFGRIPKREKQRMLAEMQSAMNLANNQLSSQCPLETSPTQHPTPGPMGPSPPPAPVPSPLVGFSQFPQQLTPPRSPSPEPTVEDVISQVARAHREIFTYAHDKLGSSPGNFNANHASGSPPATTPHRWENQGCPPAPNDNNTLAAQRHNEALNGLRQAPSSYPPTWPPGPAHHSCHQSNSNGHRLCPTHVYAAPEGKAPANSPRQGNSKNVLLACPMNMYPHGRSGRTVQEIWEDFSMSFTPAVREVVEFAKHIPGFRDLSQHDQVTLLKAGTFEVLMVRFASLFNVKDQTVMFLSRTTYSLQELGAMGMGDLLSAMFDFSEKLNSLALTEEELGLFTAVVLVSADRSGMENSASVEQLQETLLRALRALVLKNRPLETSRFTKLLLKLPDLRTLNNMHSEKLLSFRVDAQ
# B1: HCIII-TaTaKO (dsDNA)
# DNA 1: GATCGATATAAAACAGGCAGGAACCCTC
# DNA 2: GATCGAGGGTTCCTGCCTGTTTTATATC
# B2: Rev-DR2 (dsDNA)
# DNA 1: GATCCGGAAAAGTGTGTCACTGGGGCACGA
# DNA 2: GATCTCGTGCCCCAGTGACACACTTTTCCG
# B3: C3P-DR2 (-104/-72) (dsDNA)
# DNA 1: GATCCTCATCTCCACTGGTCAGCAGGTGACCTTTGC
# DNA 2: GATCGGCAAAGGTCACCTGCTGACCAGTGGAGATGAG
# Experiments:
# Conditions in all cases: tags: pSG5-hRev-erbα, TnT T7 rabbit reticulocyte lysate; label: 32P
# Rev-erb alpha (NR1D1) [1] = molecular target: T1, Rev-erb alpha (NR1D1); assay: EMSA; data not illustrated
# Rev-erb alpha (NR1D1) [2] = molecular target: T1, Rev-erb alpha (NR1D1); assay: EMSA; two complexes, monomer and dimer; 10 mM Hepes, 80 mM KCl, polydIdC
# Rev-erb alpha (NR1D1) [3] = molecular target: T1, Rev-erb alpha (NR1D1); assay: EMSA; no significant retardation
binder,measurement,setting,value
B1,binding result,Rev-erb alpha (NR1D1) [1],no binding
B2,binding result,Rev-erb alpha (NR1D1) [2],binds
B3,binding result,Rev-erb alpha (NR1D1) [3],no binding
